This passage reports protein production results from a protein production outcome set (Wang et al. 2014).
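Note: failed if final PepcDB status was selected cloned or expressed and not failed if soluble or beyond.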

The data set in a line: label from the status in PepcDB records.
On to “MLEHAAGQPWIYPVLLVFFFIDGFATILPSETAIVGLSALSLHSGEPNLWILGGTALVGAMAGDNMAYMLGRKIGLTRWKWMRRPKVQKMFAWAQYELDKRGAVLIFTARYIPWGRVAVNYVAGQTGFRHRTFFWLDAFACITWVGYSIGIGLLAGQWVHHNPLLGVGIAVAFAVVLGIVVDHALRWWHKYLEKKDVAREAAASSEVKVAEPADLSQKAVAGADLSKPAG”, for which the protein production result is given as “failed”.

As to “MAEEKKKKLSIIVFSGTIDKLMPVGILTSGAAASGYEVNLFFTFWGLQAITKRSLNSQQPPQIDKNYEQMGPIMMQKMQEMKYPMWHQLVQQAKEIGEVKVFACSTTMEFFGIKREDLAEFVDDVVGVATFLDRAEGGTTLFI”, the protein production result is recorded as “not failed”.

For the sequence “MTIHKKGQAHWEGDIKRGKGTVSTESGVLNQQPYGFNTRFEGEKGTNPEELIGAAHAACFSMALSLMLGEAGFTPTSIDTTADVSLDKVDAGFAITKIALKSEVAVPGIDASTFDGIIQKAKAGCPVSQVLKAEITLDYQLKS”, the protein production entry is listed as “not failed”.

Consider “MKLKGKGIGKVVVEGEVIVSRKPLSFLGGVDPETGTITDPESDIKGESITGKILVFPKGKGSTVGSYILYALSKNGKGPKAIIVEEAEPIVTAGAIISGIPLITNVDISKLKTGMRVRINPQEGEVEILAEGNLLEHHHHHH”, for which the protein production entry is “failed”.

On to “MVPALALGLVIGVLLVVIGVSFAAMIFSGPLAPLATRGAGLTLFGAASLCGFLAVSSSFRSAISTPQDAPVAVLATMGVPVVAAMGMSDPNATFATMLAAMSIATLATGIALMAIGHFRLTRFFRFMPYPVVGGFLAGGGWMLVKGGISVMSSLSLNVESLPMLFESVHIWKWSPGVLYAISLWLVLKRWSHFLILPCSIVMVTAAYYVAFHILAISLADARAAGILLSGVPSSGLWPAFSISDLQTVRWDIVFDQTPIMFTVVLVTMMGLLLNISGLELGSGTDIDFDREFRNAGLANTLGGLGGSAPGSHTLSLSLLCSSSGAYTRLAGIITASVIAAVLFMGGSVLEYFPLPVLGGLLVFLGIDIMDSWLRATRRRLPLSDYLVLCVIFLVICFSGFLEGVAVGLVITVVLFIIRLSKVDIIHDSFTGLTLHSRVNRSIPQRTILQQHGERIRGYRLSGYLFFGSASLLVETLKQELRKTPQPWCILLDFKNVSGFDISAANAFQRFISSAHAEHVRIVLTETSPRFISMLQRILPIESIDNLVTAQDIDRGLEACEEAILTEYTERTAQQANAADMLFEQSVDDMMAHLDRQILFEALVEELRPWVQECHYEGETLLVEKGKTQQGLQMLVWGSATATDGDGGTRLAHLRAGDVLVPQAAFAPFVAREHIMADSPCRTVLLTAQARLLMEQENPDLALRLDRYVISSWKA”, for which the protein production result is listed as “failed”.

In the case of “MYADYEYYEKEYLLGKEPVIAERNYLYYEKQARAEVDKITFNRCRGLDEIPEEVKDCVCDVAEYLCKYDRYSGSDAPGPLASFGNDGETGTYDLSNSIYTESKRKEKIQETLYKHLADTGLLYSGR”, the protein production entry is reported as “failed”.

As to “MTATWEKKEGNEGLLTVTVPAEKVNKALDQAFKKVVKQINVPGFRKGKVPRPIFEQRFGVEALYQDAIDILLPDAYGEAIDETDIKPVAQPEVSVTQIEKGKDFIFEATVTVEPEVKLGDYKGLEIEKQETELSDDELQEAIDHSLGHLAEMVVKEDGVVENGDTVNIDFSGSVDGEEFEGGQAEGYDLEIGSGSFIPGFEEQLEGMKVDEEKDVVVTFPEEYHAEELAGKEATFKTKVNEIKFKEVPELTDEIANELDAEANTVDEYKENLRKRLAEQKATDAENVEKEEAITKATDNTTIDIPEAMVNTELDRMVSEFAQRIQQQGLDLQTYFQISGQDETQLREQMKDDAEQRVKTNLTLTAIAEAEKIEATDEDIDKELEKMSKQFNISVEDIKNTLGNTDIIKNDVRIQKVIDLLRDNAKFVEGTKED”, the protein production result is listed as “failed”.

Regarding “MEATGLITEYNPFHNGHLYHLKKAQELTKADVTIVLMSGNWVQRGLPAITDKWKRAQAAIDAGADLVFELPFYYAVQAGEIFAQGAVRLLSDLQVSSIICGSEHADIDFINLAAHEPDISGNSNFDKKNRTFASNYAAALEEKTGFYLENANDILAFSYAKAILNQNLTEKIKLRTISRVSADYHDQFLNDGEIASATAIRKALSEGQNVDSYTP”, the protein production entry was “failed”.

With “MSTSEDTLRTSPDTFDADSVTSKGAPQEHARQVSGMFGRIARWYDLLNHVLSGGLDLYWRYRLVRQVVPGPTGRVLDLAAGTLDVAREIHRQHPGMRVPALDFCEAMLRAGQPKLVDGVQDVIWPAVADGRRLPLADASVDCVTIAFGIRNIVPRREAFEEMLRVLVPGGRACILEFGTGKTPVWKGLYNFYLNTLLPLVGRCVSGDAGAYRYLADTIMSFPDADALAAEMHDAGFTRVYHLPLTSGIVRLHVGEKPL”, the protein production result is reported as “failed”.

Take “MAEKVKSGQVFNLLCIFSIFFFLFVLSVNVSADVDSERAVPSEDKTTTVWLTKIKRSGKNYWAKVRETLDRGQSHFFPPNTYFTGKNDAPMGAGENMKEAATRSFEHSKATVEEAARSAAEVVSDTAEAVKEKVKRSVSGGVTQPSEGSEEL”: the protein production entry was “failed”.

“MSLENKFARTVLGDIPVEKLGITDCHDHFIKNGGPEVEEHIDFLMLNVDASIKEFKEFIDRGGSTIVTMDPPNVGRDVLKTLEIANAVKNLGGNVIMSTGFHKAKFYDKYSSWLAVVPTEEIVKMCVAEIEEGMDEYNYNGPVVKRSKAKAGIIKAGTGYGAIDRLELKALEVAARTSILTGCPILVHTQLGTMALEVAKHLIGFGANPDKIQISHLNKNPDKYYYEKVIKETGVTLCFDGPDRVKYYPDSLLAENIKYLVDKGLQKHITLSLDAGRILYQRNYGLTKGKQTFGLAYLFDRFLPLLKQVGVSKEAIFDILVNNPKRVLAFDEKRNFDPLKVSKEVLELKKELNLNEGHHHHHH”: the protein production result is on record as “not failed”.

Take “MAEPLQPDPGAAEDAAAQAVETPGWKAPEDAGPQPGSYEIRHYGPAKWVSTSVESMDWDSAIQTGFTKLNSYIQGKNEKEMKIKMTAPVTSYVEPGSGPFSESTITISLYIPSEQQFDPPRPLESDVFIEDRAEMTVFVRSFDGFSSAQKNQEQLLTLASILREDGKVFDEKVYYTAGYNSPVKLLNRNNEVWLIQKNEPTKENE”: the protein production entry is on record as “failed”.

For the sequence “MASLLQGFEEVQLVKPVGKTVLTVTDSAIRFNKATAEALGFPAYVKVLINDKTRQIAVTPTTAKAGNAIKFSKPEGKQAASVSVKEATFIEAVKAYLTLPEAPEGEIAYQSVNGTAYPESKTVIFDVANATAGTMKLEHHHHHH”, the protein production entry is reported as “not failed”.

On to “MSEFLALFSAMWKESWRDKISTFFSIAFPVMFLLIFGFLFGGSGNSVKTAVVTVDYDLSDFGDVYTSLEELKGYYHEVAVVEKERIIFIRNTTDEYYQSLLDSWEISLKNKVTRLLNGLNPVIMVKKEVLKTARELTSFDYTLTGVIAVSLLSIGLFGTVDVFSRYRERGFLKRLKATPVGNFSFVFGLISARMFYGILSTALIMLLGTLIFKASYELNVFLFLISVVSSVLSFIALGALISILFKKSDVATDAAVILFTIMMFLTGVYFPVSFLPDYLRVVSYFLPVKYGVELIRYSLGFEIFPFSRYLITAVIMFLAGLMFVFYTASLVLRKED”, for which the protein production result was “failed”.

For the sequence “MEHSGTSEVTGADTAGPDPQLAVTMGFTGFGKKARTFDLEAMFEQTRRTAVERSRKTLEAREKEEEMNREKELRKQIEDMEPAPSSSSAARERSQSSCRDTSSSDSESDDSSDSSDDELIGPPLPPKMVGESVTTVDEGTLGPLPPPLCEEGEDDDDDELDDEGEEDNPVQRIPDSHEITLRHGTKTVSALGLDPSGARLVTGGYDYDVKFWDFAGMDASFKAFRSLQPCECHQIKSLQYSNTGDMILVVSGSSQAKVIDRDGFEVMECIKGDQYIVDMANTKGHTAMLHTGSWHPKIKGEFMTCSNDATVRLWEVENPKKQKSVFKPRTMQGKKVIPTTCTYSRDGNLVAAACQNGSIQIWDRNLTVHPKFHYKQAHDPGTDTSCVAFSYDGNVLASRGGDDTLKLWDVRQFNKPLFSASDLPTLFPMTDCCFSPDDKLIVTGTSVQRGCGSGKLVFLERRTFQRVYEIHITDASVVRCLWHPKLNQIMVGTGNGLAKVYYDPNKSQRGAKLCVVKTQRKAKQAETLTQDYIITPHALPMFREPRQRSTRKQLEKDRLDPLKSHKPEPPVAGPGRGGRVGTHGGTLSSYIVKNIALDKTDDSNPREAILRHAKAAEDNPYWVSPAYSKTQPKTMFAQVESDDEESKNEPEWKKRKI”, the protein production result is “failed”.

“MPVRASIEPLTWENAFFGVNSAIVRITSEAPLLTPDALAPWSRVQAKIAASNTGELDALQQLGFSLVEGEVDLALPVNNVSDSGAVVAQETDIPALRQLASAAFAQSRFRAPWYAPDASGRFYAQWIENAVRGTFDHQCLILRAASGDIRGYVSLRELNATDARIGLLAGRGAGAELMQTALNWAYARGKTTLRVATQMGNTAALKRYIQSGANVESTAYWLYR”: the protein production result was “not failed”.

On to “MFQIIGIVLLFAMVFGSYIMAGGKMDVIIHAAPHELMAIGGAGVAAFLIGNSVTVIKATLGGFGTIFKGPKWKAQDYRDLLSLLFLLTKTMKSKGVIALEAHIEKPHESTIFSRYPKIAHDHFAVDFICDTLRMMTMNLEDPHQVEDAMEKQLEKHHHEAHGAAHALTQLSDGLPALGIVAAVLGVIKTMGSITEPPAVLGTMIGGALVGTFMGVFMAYGLVGPMATRLGGVLDEDHNFYKIIQAVLVAHLHGNAAQISVEIGRGNVPSAYQPSFAELEEALSQMPNE”, for which the protein production entry is listed as “failed”.

For “MANAKPVCSLFHSTFHDGIASVFHRSFSFPLLLILLIAFSGSGYANSSKETRAAARSESAGKTVSSRWAKGRLLVIPRAGLTAMEFDKATKPYGVKSRRRLNGLNAHVYELPDGVDEVKVLDKLKKDRRFKAVELDRLVEPAQVVTDPAFGNSWALPKIQAPAAWDIATGDGITIAILDTGVDGTHPDLAANMLPGWNAYDNNTDTSDIYGHGTKVAGTAAAVANNGAGSSGLAWNARILPVRISMPDGRAYLSDMAKGIRWAADNGARIANISYGGAESLTVQSAANYMRSKGGVVVMSAGNSGGLNNFPASNAIIVASATDSKDARASWSSYGPYVDVAAPGVSIYTTIRGGGYGYVSGTSFSSPIVAAAAALLFSINPDLAPTDIDQMLTATAQDLGNAGYDQYYGHGRINAASAVNAAHARISVDRTAPLISIASPTGGTVSGSVPVDVNYSDNKGVVRVDLYVNGRKTIEDTQPPFAFAWDTTTLANGSYTLVAYAFDAAGNQGTSSTVNVTVKNTVADTTPPTISITSPAGGAVVLGSVPVNVNSSDNIGVVRTELHVNGKKVMEGTGSSFVWDTKSLADGNYTLVAYAFDAAGNQGASSPVAVSVKNTGTTTNTEPLPQINSFNLRDGQNVSRNQNIRVTADRNTRKINLKINGGIIAAANGNSLSYRWNTSAIPKNSNITVTAEAFNAKGDATSRTVTVRN”, the protein production result is listed as “failed”.

Regarding “MAVEVVYRSSRDPERLFMDKAEADRHDKMLELAERLAEVLHKAVPSLTEQQVEEAGIYMAKNRDVFARAFKSQPDALAELLEGTAAE”, the protein production entry is “not failed”.

Take “EEPTIGDIYNGKVTSIMQFGCFVQLEGLRKRWEGLVHISELRREGRVANVADVVSKGQRVKVKVLSFTGTKTSLSMKDVDQETGEDLNPNRRRNLV”: the protein production result is given as “not failed”.

Turning to “MTDAAALPGQPRGGVLSGPATRRAVNVLAPNASAMTLDGTNTWIVAEPDSELAVVIDPGPLDDVHLRNVVDTAERAGRRIALTLLTHGHPDHAEGAARFAELTGTNVRALDPALRLGDEGLAPGDVVTVGGLELRVVPTPGHTSDSLCFHLPADRAVLTGDTVLGRGTTVVAHPDGRLGDYLDSLRRLRSLTVDDGVHTVLPGHGPVLDDAQGAVEFYLAHRAHRLAQVETAVENGYRAPAEVVAHVYADVDRSLWPAAELSVRAQMDYLREHGLI”, the protein production entry is recorded as “failed”.
